Literature values as cited in PMC4739856.
“And” between values parts separate entries of the source, which are not always exact repeats. Identical values can stand only once. Like-named read-outs stand apart in the source and are kept apart here.

Columns and labels:
His119 [1] = target: T1, His119 (UniProt position 145, PYVPVHFDASV); test: NMR; conditions: apo (ligand-free) RNase A
His12 [2] = target: T2, His12 (UniProt position 38, KFERQHMDSST); test: NMR; conditions: apo (ligand-free) RNase A
His119 [3] = target: T1, His119
His12 [4] = target: T2, His12

For “Ribonuclease A (RNase A, pancreatic ribonuclease) (Bos taurus)”, the pKa (His119 [1]) is given as 6.03 and 6.34, the pKa (His12 [2]) is given as 5.87 and 6.18 and the pKa (His119 [3]; apo (ligand-free) RNase A) is given as 6.2. For the same substance, the pKa (His119 [3]; complex with 3'-CMP) was 7.4, the pKa (His12 [4]; apo (ligand-free) RNase A) was 5.8 and the pKa (His12 [4]; complex with 3'-CMP) was 8.0.
